# B1: C33B1477 (antibody, V domains shown)
# VH: EVQLVESGGGLVQPGGSLKVSCEASGFTFSVSAIHWVRQASGKGLEWIGRIRSKGNSYATAYAASVKGRFTISRDDSKNTAYLQMDSLKTEDTAVYYCTRHNDKWNYYGLDVWGQGTTVTVSS
# VL: DIVMTQSPLSLPVTPGEPASISCKSSQSLLFSNGYKFLDWYLQRPGQSPQLLIYLGSYRASGVPDRFSGSGSGTDFTLKISRVEAEDVGLYYCMQALQTPPTFGGGTKVEIK
# notes: also called sCD33B1477
# B2: C33B904 (antibody, V domains shown)
# VH: EVQLVESGGGLVQPGRSLRLSCAASGFTFDDYAMHWVRQAPGKGLEWVSGIGWSGGSIVYADSVKGRFTISRDNAKNSLYLQMNSLRAEDTALYYCAKDSPYGDFFDYWGQGTLVTVSS
# VL: DIVMTQSPDSLAVSLGERATINCKSSQTVFYSSNNKNYLAWYQQKPGQPPKLLISWASTRKSGVPDRFSGSGSGTDFTLTVSSLQAEDVAVYYCQHYYSTPYTFGQGTKLEIK
# notes: also called anti-CD33 antibody (clone C33B904); anti-CD33 clone C33B904
# What was measured:
# [1] = target: T1, human CD33 on cells (MOLM-13, Kasumi-1, OCI-AML-3, Kasumi-3) (human, UniProt P20138 18-364); assay: flow cytometry on MOLM-13 cells, 4 °C, serial dilutions of the antibody
# T1 construct: whole, on cells; also called CD33 expressing cells; CD33+ cell lines
# T1 sequence (P20138 18-364): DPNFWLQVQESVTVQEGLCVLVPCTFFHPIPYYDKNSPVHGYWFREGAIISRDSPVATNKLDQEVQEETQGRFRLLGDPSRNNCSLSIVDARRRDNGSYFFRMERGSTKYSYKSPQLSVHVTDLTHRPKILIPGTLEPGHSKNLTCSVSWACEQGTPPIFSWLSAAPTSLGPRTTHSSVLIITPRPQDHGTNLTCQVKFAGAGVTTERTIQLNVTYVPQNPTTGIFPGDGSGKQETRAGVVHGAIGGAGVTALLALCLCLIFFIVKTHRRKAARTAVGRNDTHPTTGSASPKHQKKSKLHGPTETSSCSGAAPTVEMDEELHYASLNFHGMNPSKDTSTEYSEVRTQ
# Experimental: (§1) Cells were harvested, washed once with PBS and then stained with the fixable viability dye at room temperature for 30 min. Following incubation, cells were washed twice with FACS buffer (PBS+2% FBS). Cells were then used for binding assay with test antibodies. 100,000 cells were stained with the test antibodies in a 100 ul staining volume. Antibodies for staining were diluted in FACS buffer and incubated with the cells for 40 mins on ice, followed by washing 2X with FACS buffer. Test antibodies were then detected using the PE conjugated Goat F(ab′)2 Anti-Human IgG-Fc (ab98596; Abcam) for 40 minutes on ice. Following washing, data was acquired on the Novocyte flow cytometer (ACEA). Cells were gated on FSC/SSC, followed by live cell gating and doublet discrimination. Data was analyzed using Flow Jo (BD).
# (§2) Median fluorescence intensity values were used to plot a 4-parameter non-linear regression analysis curve after subtracting the MFI of the secondary only sample.
# (§3) The binding EC₅₀ values of CD33 antibodies to high (MOLM-13), medium (Kasumi-1) and low (OCI-AML-3) cell lines were assayed. Binding was carried out at 4° C. with serial dilutions of the antibody.
# [2] = target: T1, human CD33 on cells (MOLM-13, Kasumi-1, …); assay: flow cytometry on OCI-AML-3 cells, 4 °C, serial dilutions of the antibody
# Experimental: as §1, §2, §3
# [3] = target: T1, human CD33 on cells (MOLM-13, Kasumi-1, …); assay: flow cytometry on OCI-AML-3 cells, 4 °C, detection with PE goat F(ab')2 anti-human IgG-Fc [contd]
# [4] = target: T1, human CD33 on cells (MOLM-13, Kasumi-1, …); assay: FACS binding on MOLM-13 cells
# [5] = target: T1, human CD33 on cells (MOLM-13, Kasumi-1, …); assay: FACS binding on Kasumi-1 cells
# [6] = target: T1, human CD33 on cells (MOLM-13, Kasumi-1, …); assay: FACS binding on OCI-AML-3 cells
Binder,EC50 [1] [nM],EC50 [2] [nM],EC50 (read off the curve) [3] [µg/mL],EC50 [4] [nM],EC50 [5] [nM],EC50 [6] [nM]
B1,56,0.6,~0.09,,,
B2,,,,134,82.2,16.4

# From patent US20230365684A1 (Janssen / Centocor, published 2023)
